Measurements taken from the DeepSol protein solubility set.

Experiment: soluble on expression in E. coli; label from the status in PepcDB or PDB records

Row | Sequence | soluble on expression in E. coli
1 | AHHHHHHGSKYDVVVVGSGVAGPIVARDVAKAGFSVLLVDKKPAIGTPKQCAEGINVNVFKEFDIPYDKRFINREIYGARIYSPSGYTAELRYDKVSGVILERKVFDKMLAYYAAKAGADVWARTEVIDLLRKEGKIMGVKAKHEGELVEIEAKIIVAADGVESTVARLAGINTYAPPHEFDSAYEYEMIIEGYDPDLIHLWFGNEIAPRGYVWVFPKDEDRANVGIGINSDNEKTAKYYLDKWLKENNIPTKKILEINVGLVPVGGFVRELVKENVAVVGDAARQVNPVHGGGMYEAMKAANILAKWIVKALEEENLELLKNYTKEWWEVEGPKMERLLKLRRAMEKLTDEDIDVFVQLLGGTDLEKLAGGNYFEVVKALMKHPKVLMSKRRLEILKALL | soluble
2 | AHHHHHHGSPITKVTRNYQITIPAEIRKALGIKEGELLEVRLENGKIIIERLKKERKTLKLGKKLTLEEIEKAIEEGMKQCMQMHAVIDTNVLIYDTFSDSEFHKESRSLLNSLDRWYIPSIVLQEYVWFFRSQGFSSREAKIMLSEYISDPRFRGLVEDHNVILRAIDILERENLSLSRFNDMIILVHAIEKGTLATFDQKLRKLARKLSVEILP | soluble
3 | AHHHHHHGSPKIGIIGGSGVYGIFEPKETVKVHTPYGRPSAPVEIGEIEGVEVAFIPRHGKYHEFPPHEVPYRANIWALHELGVERVIAVNAVGSLKEEYKPGDIVIIDQFIDFTKKREYTFYNGPRVAHISMADPFCPELRRIFIETAKELNLPVHEKGTYICIEGPRFSTRAESRMFRQFADVIGMTLVPEVNLARELGMCYVNISTVTDYDVWAEKPVDAQEVLRVMKENEEKVQKLLKRAIPKIPEERKCGCADVLKTMFV | not soluble
4 | AHHHHHHGSVSKPHGGKLIRRIAAPRTRERILSEQHEYPRVQIDHGRAIDLENIAHGVYSPLKGFLTREDFESVLDYMRLSDDTPWTIPIVLDVGEPTFEGGDAILLYYENPPIARMHVEDIYTYDKKEFAVKVFKTDDPNHLGVARVYSMGKYLVGGGIELLNELPNPFAKYTLRPVETRILFKERGWKTIVAFQTRNVPHLGHEYVQKAALTFVDGLFINPVLGRKKKGDYKDEVIIKAYYLIMKYCSNTTHHAIMRKTSTSSQT | not soluble
5 | AHHHHHHGSYLSIGTLLHRPLSSNLCIAYEIATPAIYLSPGYFTTFPATYDEILLIVSTSLAFPYVWV | soluble
6 | AHHHHHHHRSDAAVIVVGAGPAGMMLAGELRLAGVEVVVLERLVERTGESRGLGFTARTMEVFDQRGILPRFGEVETSTQGHFGGLPIDFGVLEGAWQAAKTVPQSVTETHLEQWATGLGADIRRGHEVLSLTDDGAGVTVEVRGPEGKHTLRAAYLVGCDGGRSSVRKAAGFDFPGTAATMEMYLADIKGVELQPRMIGETLPGGMVMVGPLPGGITRIIVCERGTPPQRRETPPSWHEVADAWKRLTGDDIAHAEPVWVSAFGNATRQVTEYRRGRVILAGDSAHIHLPAGGQGMNTSIQDAVNLGWKLGAVVNGTATEELLDSYHSERHAVGKRLLMNTQAQGLLFLSGPEVQPLRDVLTELIQYGEVARHLAGMVSGLEITYDVGTGSHPLLGKRMPALELTTATRETSSTELLHTARGVLLDLADNPRLRARAAAWSDRVDIVTAVPGEVSATSGLRDTTAVLIRPDGHVAWAAPGSHHDLPMALERWFGAPLTG | soluble
7 | AIAASSTDQNLMDLSDKDTREKLSFWDRRVDPMAPLTDRQTDSILELRAAAEETLLPAELPIEDICSLSSRSLRSSFTAALPESTEEVLLQGFQMLELHNHRIETAQQFFSWFSKLQVQMDQDEASKYRKTRDVLNGYQEQCDAILNDVNTALDHLDSLQKQYLFVSTKTGTLHEACEQLLKEQSELVDLAESIQEKLSYFNELENINTKLNSPTLSVNSEGFVPMLSKLDECIEYVSSHPNFKDYPVYLTKFKQCLSKAMQLIKSHTVNTLQNLTGQLSKRDPLGAPSA | not soluble
8 | AIADFSENASGIPAEELAFPEIIELNVGGQVYITRYLTLTSVPDSLLWKMFSQKSSKDLARDTKGRFFIDRDGFLFRYILDYMRDQQLVLPEHFPEQGRLQREAEFFNLPELVQLLAPKISKQNTLGDDGCQTDQDESSPGANITCNLSSLGAYSSLGAATADGQRSGFITIGCRGSYTLGRDCQTDAKFRRVARIMVCGKTSLAKEVFGETLNESHDPDRQPDRYTSRYYLKFTSLEQAFDRLADAGFHMVACNSTGTCAFAHVQTDDKIWTSYNEYVFYRE | soluble
9 | AIAPDESAQVRFLIVGRTGWIANMVAELLEQRGERYAFASFRLEQREACELELDALRPQRVLNCAGVTGRPNVDWCEDHRRETVRSNVLGVLNLADCCASRGIHLTNFATGCLYHYDDGEHRPTAEGGRPFTEDDPPNFFGSYYSRTKAMVEELLRSAFDNVLILRLRMPVSDDLSPRSFVAKIARYEKVVNIPNSMTVLTELLPVALDMSERGLTGVYNFTNPGSISHNEVLELYRKYIDPKFQWKNFTLEEQAKILKAGRSNCELDVRKLLRDNPGAQIREVHAAMEEVFRRMQAKGVKPLAAP | soluble
10 | AIARGHGTYMDEDRLTASVAGQVERVNKLICVKPLKTRYNGEVGDVVVGRITEVQQKRWKVETNSRLDSVLLLSAVNLPGGELRRRSTQDELAMRDYLQEGDLISAEVQSIFSDGALSLHTRSLKYGKLGQGVLVYVSPSLVKRQKTHFHNLPCGASLILGNNGYVWLSPTPALQEEQAGGFYTSMEPVSLSDREVVSRLRNCLLALANQKVLLFDTSVLYCYEASLQHQIKDILKPEIMEEIVLETRQRLMEHEG | soluble
11 | AIAVQKLENIPALVHLKEKNIISIRVFLQGRSIVGIQLNYNDNEDGQVYGSTAGKEMVARLSKEEHIIGVEGTYNPSALTQIIFTTNQPRQLMVGYHVGNYQYSSYPDDPSLVLKGACVSWRAGGIKSILFLWGSENSSCVKYGHSG | soluble
12 | AIHAVCVLKGDSPVTGTIHLKEEGDMVTVTGEITGLTPGKHGFHVHEFGDNTNGCTSAGGHFNPHGKEHGAPEDENRHAGDLGNVVAGEDGKAVINMKDKLVKLTGPDSVIGRTLVVHVDEDDLGRGGHEQSKITGNAGGRLACGVIGITKE | soluble
13 | AINQANRSVCITTPYFVPSADLLATLKMTAQRGIKVDIIIPKKNDSLMVQWASRAFYGELLEAGVQIHEFDGGLLHTKSVVIDQQFCLVGTVNLDMRSLWLNFELTLAVDDLEFTQQMHWLQQQYIDQSHSVVYAEWEQRPWYNRFLERVFYLFNPLL | not soluble
14 | AKDDKVTVLSIERGNKLVYLEKLGLRGDQFYYKIERIRESNGVVYIYHTSYIPEQYINANYPNLEYYSSIYNRFKLDYHIHMNDEHFEEINEIVFPTPEHAASVLGVDEQFPTVLQTKITKLESTGQVLEYSETYKRSDYYKIKFISCDRDH | not soluble
15 | AKGSTNHRALTGVIFEPFEEVKKELDLVPTVPQASLARQKYVDESESAVNEQINVEYNVSYVYHAMFAYFDRDNVALRGLAKFFKESSEEEREHAEKLMEYQNKRGGKVKLQSIVMPLSDFDHADKGDALHAMELALSLEKLTNEKLLNLHSVATKNGDVQLADFVETEYLGAQVEAIKRISEYVAQLRRVGKGHGVWHFDQMLLHEGGDAA | soluble
16 | AKKIGLFYGTQTGKTESVAEIIRDEFGNDVVTLHDVSQAEVTDLNDYQYLIIGCPTENIGELQSDWEGLYSELDDVDFNGKLVAYFGTGDQIGYADNFQDAIGILEEKISQRGGKTVGYWSTDGYDFNDSKALRNGKFVGLALDEDNQSDLTDDRIKSWVAQLKSEFGL | soluble
17 | AKLLPKLQKQNLSDSAQQIAQERGLGNSSQRKVYLPIIRAYRVGPELIDWTDGKNLRELGIYRQTGCYIERIRRNGILAHPDGDAILQEGDEIALVGFPDSHARLDPSFRNGKEVFDRNLLDLRIVEEEIVVKSDAIAGKRLSDLNLSEFGCFLNRVVRAQIEMPMDLDIVLAKGDVLQVSGEKSRVHGLAEKIGFISIHSQMAD | not soluble
18 | AKTEQQIADIVNRTITPLMQEQAIPGMAVAIIYEGKPYYFTWGKADIANNHPVTQQTLFELGSVSKTFNGVLGGDAIARGEIKLSDPVTKYWPELTGKQWRGISLLHLATYTAGGLPLQIPDDITDKAALLRFYQNWQPQWTPGAKRLYANSSIGLFGALAVKPSGMSYEEAMTRRVLQPLKLAHTWITVPQSEQKNYAWGYREGKPVHVSPGQLDAEAYGVKSSVIDMARWVQANMDASHVQEKTLQQGIELAQSRYWRIGDMYQGLGWEMLNWPLKADSIINGSDSKVALAALPAVEVNPPVPAVKASWVHKTGSTGGFGSYVAFVPEKNLGIVMLANKSYPNPVRVEAAWRILEKLQ | soluble
19 | ALESARAGYWEWNVENGTILIDRQWAVISGYNSADFDMLTMEQWRELCHPADLGVVTKSIEELLDGSMERLELELRVRHKNGEWIRVLDCGKVTGRSKNGKPSCLTGSRQALASLHDK | soluble
20 | ALSPPRRKSFKKWTPPRSPFNLVQEILFHDPWKLLIATIFLNRTSGKMAIPVLWEFLEKYPSAEVARAADWRDVSELLKPLGLYDLRAKTIIKFSDEYLTKQWRYPIELHGIGKYGNDSYRIFCVNEWKQVHPEDHKLNKYHDWLWENHEKLSLS | soluble
21 | AMAISITCPPPMSVEHADIWVKSYSLYSRERYICNSGFKRKAGTSSLTECVLNKATNVAHWTTPSLKCIRDPALVHQRPAPPSTVTTAGVTPQPESLSPSGKEPAAS | soluble
22 | AMDSIAKRPRTRLSPLKRKQQLMEIALEVFARRGIGRGGHADIAEIAQVSVATVFNYFPTREDLVDEVLNHVVRQFSNFLSDNIDLDLHAKENIANITNAMIELVVQDNHWLKVWFEWSASTRDEVWPLFVTTNRTNQLLVQNMFIKAIERGEVCDQHNPEDLANLFHGICYSLFVQANRTNNTAELSKLVSSYLDMLCIYKREHE | soluble
23 | ANGFHYTVGFNLSDYQSEVTKFDNESKELGNWYVGQKQGEIWGYETYGLFQSEQEIAGAANQDKVSGGIKLMPGDIRFVDRNNDGVIDWGDNTVDNPGDKKIIGNSTPRYHYGINLGADWKGFDLGIFFQGVGKRDLYLPGTSFRSHYGSEWQVPSAYNNDYWTEENTGAYFPRARFNGGSAINQAQTRYMVDASYCRLKSLSIGYTLPKVLTQKASIEKIRIYFTGENLFTISDTPDGLDPELDNPYTYPMQRSLSVGLSLTF | not soluble
24 | ANKMALLIDGPNMLRKEFNVDLDKVRDALEQFGDIVVGRVYLNQYASDKLIEAIANQGFEPRISAGDVDVEMAVEGTELIFNKNIDTIVYMTRDADFLPAIRKAKERGKQIIVVGAEPGFSTAIQNIADHVIRVEEDFE | not soluble
25 | ANKNKGFEGVAWDPRRQQLLLGEERPPALYTWKSDGSNVLKGDKQSLLSRALDMRNLSSLSIDPRTGHMLALSADSHMLLEVDEQGNQVSFMTLLGGMNGLKD | not soluble
26 | APEERDLTQEQTEKLLQFQDLTGIESMDQCRHTLEQHNWNIEAAVQDRLNEQEGVPSVFNPPPSRPLQVNTADHRIYSYVVSRPQPRGLLGWGYYLIMLPFRFTYYTILDIFRFALRFIRPDPRSRVTDPVGDIVSFMHSFEEKYGRAHPVFYQGTYSQALNDAKRELRFLLVYLHGDDHQDSDEFCRNTLCAPEVISLINTRMLFWACSTNKPEGYRVSQALRENTYPFLAMIMLKDRRMTVVGRLEGLIQPDDLINQLTFIMDANQTYLVSERLEREERNQTQVLRQQQDEAYLASLRADQEKERKKREERERKRRKEEEVQQQKLAEERRRQNLQEEKERKLECLPPEPSPDDPESVKIIFKLPNDSRVERRFHFSQSLTVIHDFLFSLKESPEKFQIEANFPRRVLPCIPSEEWPNPPTLQEAGLSHTEVLFVQDLTDE | soluble
27 | APPGPPASGPCADLQSAINAVTGGPIAFGNDGASLIPADYEILNRVADKLKACPDARVTINGYTDNTGSEGINIPLSAQRAKIVADYLVARGVAGDHIATVGLGSVNPIASNATPEGRAKNRRVEIVVN | soluble
